Results as given in patent US20260001926A1.

Target: fibroblast growth factor receptor (FGFR)
Assay: cell-based or functional assay

EC50 (luciferase reporter in HEK293T cells transfected with plasmid FJ773212 / pGL4.33): 0.2 ng/ml
Substance: Bovine wild-type FGF2 (SEQ ID NO: 1) (from UniProt P03969 11-155) (ligand)
